According to the DeepSol protein solubility set:

Assay: soluble on expression in E. coli; label from the status in PepcDB or PDB records

Sequence	soluble on expression in E. coli
MQMESQRRDVFYVSDGTAITCETLGHVVLGQFAVQPNEKTFPFVESDEKLSELLKQIQRSYQLHGVKPLVFFSMVIPEMRTRLLQAPAHFYDVLESIVQRVSLDIEMEPAPKLQRSRSVGKDSDTYFDRIAAIEYTLAHDDGVSLKDLDRADIILLGVSRSGKTPTSLYMAMQFGLRVVNYPFIAEDMHAMRLLPEFEFHRHKLFGLTINAERLTEIRENRLAGSEYASNQQCQQELATVEALFRREAISYINTSSLSVEEISTRILERTGLKRRLF	not soluble
MNKYQAVIIGFGKAGKTLAVTLAKAGWRVALIEQSNAMYGGTCINIGCIPTKTLVHDAQQHTDFVRAIQRKNEVVNFLRNKNFHNLADMPNIDVIDGQAEFINNHSLRVHRPEGNLEIHGEKIFINTGAQTVVPPIPGITTTPGVYDSTGLLNLKELPGHLGILGGGYIGVEFASMFANFGSKVTILEAASLFLPREDRDIADNIATILRDQGVDIILNAHVERISHHENQVQVHSEHAQLAVDALLIASGRQPATASLHPENAGIAVNERGAIVVDKRLHTTADNIWAMGDVTGGLQFTYISLDDYRIVRDELLGEGKRSTDDRKNVPYSVFMTPPLSRVGMTEEQARESGADIQVVTLPVAAIPRARVMNDTRGVLKAIVDNKTQRMLGASLLCVDSHEMINIVKMVMDAGLPYSILRDQIFTHPSMSESLNDLFSLVK	soluble
PRGSHMAEYLRLPHSLAMIRLCNPPVNAVSPTVIREVRNGLQKAGSDHTVKAIVICGANGNFCAGADIHGFSAFTPGLALGSLVDEIQRYQKPVLAAIQGVALGGGLELALGCHYRIANAKARVGLPEVTLGILPGARGTQLLPRVVGVPVALDLITSGKYLSADEALRLGILDAVVKSDPVEEAIKFAQKIIDKPIEPRRIFNKPVPSLPNMDSVFAEAIAKVRKQYPGVLAPETCVRSIQASVKHPYEVGIKEEEKLFMYLRASGQAKALQYAFFAEKSANKWSTPSGASWKTASAQPVSSVGVLGLGTMGRGIAISFARVGISVVAVESDPKQLDAAKKIITFTLEKEASRAHQNGQASAKPKLRFSSSTKELSTVDLVVEAVFEDMNLKKKVFAELSALCKPGAFLCTNTSALNVDDIASSTDRPQLVIGTHFFSPAHVMRLLEVIPSRYSSPTTIATVMSLSKKIGKIGVVVGNCYGFVGNRMLAPYYNQGFFLLEEGSKPEDVDGVLEEFGFKMGPFRVSDLAGLDVGWKIRKGQGLTGPSLPPGTPVRKRGNSRYSPLGDMLCEAGRFGQKTGKGWYQYDKPLGRIHKPDPWLSTFLSQYREVHHIEQRTISKEEILERCLYSLINEAFRILEEGMAARPEHIDVIYLHGYGWPRHKGGPMFYAASVGLPTVLEKLQKYYRQNPDIPQLEPSDYLRRLVAQGSPPLKEWQSLAGPHGSKL	soluble
MKRSEKKSMSSALKNGIMERTQPEKVVQMQGTADLSTSKLGTKKYWDELYALELENFRRNPQDTGDCWFSDSDAEQKMIDFLVDNIGAYRISENASVVDLGTGNGHMLFELHQTEFQGKLVGIDYSEESVKLASNIAEATGVDNFISFQQADIFSGDWKPGKYDIVLDKGTLDAISLSGMKINGKLDVVDVYAGVVERILKKDGIFLITSCNFTQDELVKIIETDNLKMWKTIKYPVFQFGGVQGATICSVAFVKQN	soluble
MPSGVCEPKERSPCMNKIDKLDKELEKAREKAAEWQAKIRELEKQKQEEENSQIVQAVRSLKLTPAQLMAFLNDPKNSLTASGHTDPKPEAPEKEDTAHEEN	not soluble
MGSDKIHHHHHHMMKTDYVFCVDSDGCAMDTMTYKHKLFFGPLAADVFDVKDREPFLAEWNRVNLYSRERGINRFVGLVKGLDFAGVTGIDNLKNWVATTDSLSNASLERLIEETPSKDLELALEWSTQVNQAIKHYSGPVLAFIGVHKGLEKLSQLGKVYVVSSANKEAVEEEWTDQGLLDFVTELYCQDRGKKEDVIKILIEEGYCPDKIMMIGDSPGDLKAAELNGVHFYPILVGQEMQSWADLTETIADEFAHQAFTGEKETELIQAFWNNLDD	not soluble
MVARSEEIVIVEEDTTAKCLMLLSRVGECGGGCGGDERVFRCKTCLKEFSSFQALGGHRASHKKLINSDNPSLLGSLSNKKTKTSHPCPICGVKFPMGQALGGHMRRHRNEKVSGSLVTRSFLPETTTVTALKKFSSGKRVACLDLDLDSMESLVNWKLELGRTISWS	not soluble
MHTLLLLAALSNQITFTTTQQGDIYTVIPQVTLNEPCVCQVQILSVRDGVGGQSHTQQKQTLSLPANQPIELSRLSVNISSEDSVKIIVTVSDGQSLHLSQQWPPSAQ	not soluble
MGQSLPLHLLKYPSKFSINIYAAPVSDAREMALGSKDIVFVGSRSAGKVYAVIPDKKNSHGTRVLTIASGLNMPNGVAFHKGALYVAEIGRILRFDNIESNLNNPPEPVVVTTKLPKEKAHGWRFISFGPDDKLYIGIGAPCNVCLMEDPRYATIMRMNTYGQDLEIYARGIRNTVGFDWDPLHHNLWFTDNGRDWLGDNLPPDELNVAPRKGMDFGFPYCYGKSTVDPVYGKIHSCSEFTPAVFEFPAHVAPLGMSFYTGKLFPSNYWGQIFISEHGSWNRSHKIGYQVTTVKIKNNHVTEVKPFISGWLQGEKAWGRPVDTLVMPDGSLLISDDYANVIYRVSYQLEHHHHHH	not soluble
SALDTNYCFRNLEENCCVRPLYIDFRQDLGWKWVHEPKGYYANFCSGPCPYLRSADTTHSTVLGLYNTLNPEASASPCCVPQDLEPLTILYYVGRTPKVEQLSNMVVKSCKCS	soluble
MPAFVDLEELLATRLLVQGNSGSGKSHLLRRLLEQSSSWVQHCVIDPEGDFVTLADKFGHVIVEAQRSEQELMRIAYRIRQHRVSVVLNLEGLDTEQQMRAVGTFLGALFDVERDYWYPMLVVVDEAQLFAPAVAGEVSDEARKISLSAMTNLMCRGRKRGLAGVIATQRLAKLAKNVAAEASNFLIGRTFLDIDMVRAADLLGMERRQAEMFRDLERGHFVALGPALSRRSLRIIIGSVETLARSSSPKLMPLPKERVDVKELVFTASQEEILIPFKQSREPVKEKSIHAILEKAVNKKRELLAENSSLFPELSVVDRDLQAECIIREILEDPEAFYRSTAVLYQDFLVRCRIHGLSGDFLNLSQFRRKLAIAQACVDKETAVSENWKRILYISESLEDDVQGVFLNVAQAALGGKPCPSDAFLARLYGTHSLSRARRLLTYFEERGLIVIHTHFSGQRIIAFPDLGVETAPGDPKEPI	not soluble
MSLMFERSPDDPLPLVYACSGCSNVAQLANDLALRLDRARLAEMSCIAGVGGDVPLLVRRARSGRPILALDGCPLHCVKGCLARHEVVPTLHLTLSEHGLKKRYGEDCEAQDAERLFVELERLLTPGGKRRCEEGHHHHHH	soluble
MAHHHHHHMNRIPAATRNAPMYATAMSQFAVCRQPWNEYISLLTKDDAQPFHTTPQEKPAYRGRKRGREGWLFGQQVQLHYHRFPDEQLFTNLTRWRMGDTVGDVAIQQFRNAQPFDIEDKDPQGFQRPAPEVYMKLNYKNPATISRFLTRTGHMYPQDIMPLNPEAVVKLRVAKAQAIRIGLYPRFGNPFWFRSQSFRPKAYQENYDPTTYSTKHTMEHFAYNWVQTDRIRQYFKGLEELHQSRRATASSGGGGVTSEHKQQSQLYALDNMSIEMHRNAPSYRADVERSIKKPTVPGLMSTKGMKKKFHNLYSSTSTKRMGFSNPTLGIKKV	not soluble
MGSDKIHHHHHHMIIRKICTTLPVILPEPETIMTVTRPRAERGAFPPGTEHYGRSLLGAPLIWFPAPAASRESGLILAGTHGDENSSVVTLSCALRTLTPSLRRHHVVLCVNPDGCQLGLRANANGVDLNRNFPAANWKEGETVYRWNSAAEERDVVLLTGDKPGSEPETQALCQLIHRIQPAWVVSFHDPLACIEDPRHSELGEWLAQAFELPLVTSVGYETPGSFGSWCADLNLHCITAEFPPISSDEASEKYLFAMANLLRWHPKDAIRPS	not soluble
IRTHLNLPSDKKVIMYAPTWRDDEFVSKGKYLFELKIDLDNLYKELGDDYVILLRMHYLISNALDLSGYENFAIDVSNYNDVSELFLISDCLITDYSSVMFDYGILKRPQFFFAYDIDKYDKGLRGFYMNYMEDLPGPIYTEPYGLAKELKNLDKVQQQYQEKIDAFYDRFCSVDNGKASQYIGDLIHK	not soluble
MYYLELALGTQEMEAIVGKVTEVNKDTFWPIVKAAGDKPVVLDMFTQWCGPCKAMAPKYEKLAEEYLDVIFLKLDCNQENKTLAKELGIRVVPTFKILKENSVVGEVTGAKYDKLLEAIQAARS	soluble
MGSDKIHHHHHHMSKENIFDALKSGKIDYVRVEFVDILGNTKGRSLRRAEFENVINDNKGVDYPESLALMDYKDRPIKSRYEDIIAIPDLNTFVAIPYLERTARVLSFLAQPDGLPYPYCSRSILNKAIEKLKEAGYTLQVSFEPTFYLLNSALNPADYSKAFSLEGLLEQQNFLKLLIKYLEEIDIKVETINKHYGPGQYEVKLSQKPVLEAADSLISSREVIRDTAKMNNVIATFMPKPFKDYPSSSMDITLSLQTVDGKDIMYDPNDSKGIGLSKIAYNFISGILEHLPSILSIAAPTVNSYKRFKEVVTPNMPGIGSERHYIVRLPSYYKDTHQVEFRLADPLANPYILLASMIYAGLDGIERNLMANVNEYYGTLPQTLKESLSRLENDTYMKYNLGQDLISIYINIKNIEIEEYESQITEWERDYYLKAGW	not soluble
ALQAAADIDTVVFDLNGTLTQGKMVVKSLHITDKKYLRPIALLESQSDHPVAKIIKSYMEQQDTASTEPLEITSIDKSHHSGMKGIINGEVFIIGNKDMLAANGITSIDKPYDNPEKGSVYIVRGTTVIGQIALIDPLREDAIATVKQLKRLGKSVHICTGADQATAEKYAALLGIPKDNICANTVGAVTKKGEVSKTSYIQQLKQKGFKVAMVGDAANDATAIAYSDIGIAVKSSIGDSITEQHAGIVVQQGLLFPIATAFDVAQKTKQNIFQNLFVSLSYNSIIT	not soluble
MAEKVAVIVGPTAVGKTKLGIALAKKLGGEVISGDSMQIYKGMDIGTAKVKPDEMEGIPHHLLDIKEPCEPFSVVEFQRLCRALITEISARGRLPIIVGGTGLYIQAALYDYQFSAAPSDEAYRRALKQLAAEQGAEALHRRLEAVDPISAARIHPHNIRRVIRALEVYHCTGKPFSEWQQTEKRLLYEAAIVGLTAEREALYRRINERVDEMIAAGLIEEARALYDRGLRDCQAVQAIGYKELYDYFDGRVSLDEAIEQLKQNSRRYAKRQLTWFRNQMPVKWFDMTDAGQFAAKVQEISRYVAGKLQLEANI	not soluble
MIDFNVDSARCTRCGQCVADCPSRIIVMATGEYPSIAPGKEFSCLRCEHCLAVCPEAAISILGFSPDGSTPLKGNLPETDQLETLIAGRRSVRRYCPENLSPELIDKLITVASCAPTGVNARKVRFTVLDDREKTAHFRDEVMERLVRLLEEEALPESKAYYARFVKVWQKHKIDLVFRDAPHLLIATAPKSLSTPRQDCVIALTTFELYAQACGIGTLWNGIATWAIEEMLPEMRQRLGIPDDHAFGYAMLFGKPAVRYARTVQHHPPEIYRVPLEHHHHHH	not soluble
MNVGDVVKGEVLAIDDDKQVIVGIQGTGVEGVVPLKELSTQRVDDVNEAAKVGDVLDLVVISRIGSDKENGSYLLSHRRLEARKVWDDVEKEYEAGHTIKAPVTQVVKGGLVVDAGVRGFIPASMIDDHYVEDLNAYKGQELELKIIEIEPSENRLILSHRAVVEKQREALEHHHHHH	soluble
